Consider four substances from publication PMC5209733, “U24 from Roseolovirus interacts strongly with Nedd4 WW Domains” (Scientific Reports, 2017).

Assay [1] deals with hNedd4L-WW3* domain (third WW domain of human Nedd4-like protein, GST tag removed) (human) (UniProt Q96PU5). Nature of the assay: ITC; peptide titrated into the cleaved WW domain (40 to 150 uM) in the cell; 10 mM sodium phosphate, pH 7.4, 25 °C; MicroCal VP-ITC; bimolecular interaction model; three runs (further runs with 100 mM and 500 mM NaCl told in words only).
Chain of hNedd4L-WW3* domain (third WW domain of human Nedd4-like protein, GST tag removed) (human) (Q96PU5 496-539): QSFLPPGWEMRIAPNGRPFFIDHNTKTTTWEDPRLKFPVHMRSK
For another assay, the target named is Fyn SH3 (Homo sapiens) (UniProt P06241). Conditions: cited from earlier work.
Chain of Fyn SH3 (Homo sapiens) (P06241 79-146): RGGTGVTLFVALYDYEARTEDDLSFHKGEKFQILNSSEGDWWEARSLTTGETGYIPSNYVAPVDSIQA
Assay [2] has as its target rNedd4-WW2 domain (second WW domain of rat Nedd4, GST tag removed) (rat) (UniProt Q62940). Nature of the assay: ITC; peptide titrated into the cleaved WW domain (40 to 150 uM) in the cell; 10 mM sodium phosphate, pH 7.4, 25 °C; MicroCal VP-ITC; bimolecular interaction model; three runs (further runs with 100 mM and 500 mM NaCl told in words only). In general terms: In ITC the heat of successive injections is recorded.

Assay [3] has as its target hNedd4-WW3* domain (third WW domain of human Nedd4, GST tag removed) (human) (UniProt P46934). The description is as above.
Assay [4] has as its target rNedd4-WW3/4 domain (third WW domain of rat Nedd4, GST tag removed) (rat) (UniProt Q62940). The description is as above.

Chain of hNedd4-WW3* domain (third WW domain of human Nedd4, GST tag removed) (human) (P46934 whole entry, the tested form may be a part): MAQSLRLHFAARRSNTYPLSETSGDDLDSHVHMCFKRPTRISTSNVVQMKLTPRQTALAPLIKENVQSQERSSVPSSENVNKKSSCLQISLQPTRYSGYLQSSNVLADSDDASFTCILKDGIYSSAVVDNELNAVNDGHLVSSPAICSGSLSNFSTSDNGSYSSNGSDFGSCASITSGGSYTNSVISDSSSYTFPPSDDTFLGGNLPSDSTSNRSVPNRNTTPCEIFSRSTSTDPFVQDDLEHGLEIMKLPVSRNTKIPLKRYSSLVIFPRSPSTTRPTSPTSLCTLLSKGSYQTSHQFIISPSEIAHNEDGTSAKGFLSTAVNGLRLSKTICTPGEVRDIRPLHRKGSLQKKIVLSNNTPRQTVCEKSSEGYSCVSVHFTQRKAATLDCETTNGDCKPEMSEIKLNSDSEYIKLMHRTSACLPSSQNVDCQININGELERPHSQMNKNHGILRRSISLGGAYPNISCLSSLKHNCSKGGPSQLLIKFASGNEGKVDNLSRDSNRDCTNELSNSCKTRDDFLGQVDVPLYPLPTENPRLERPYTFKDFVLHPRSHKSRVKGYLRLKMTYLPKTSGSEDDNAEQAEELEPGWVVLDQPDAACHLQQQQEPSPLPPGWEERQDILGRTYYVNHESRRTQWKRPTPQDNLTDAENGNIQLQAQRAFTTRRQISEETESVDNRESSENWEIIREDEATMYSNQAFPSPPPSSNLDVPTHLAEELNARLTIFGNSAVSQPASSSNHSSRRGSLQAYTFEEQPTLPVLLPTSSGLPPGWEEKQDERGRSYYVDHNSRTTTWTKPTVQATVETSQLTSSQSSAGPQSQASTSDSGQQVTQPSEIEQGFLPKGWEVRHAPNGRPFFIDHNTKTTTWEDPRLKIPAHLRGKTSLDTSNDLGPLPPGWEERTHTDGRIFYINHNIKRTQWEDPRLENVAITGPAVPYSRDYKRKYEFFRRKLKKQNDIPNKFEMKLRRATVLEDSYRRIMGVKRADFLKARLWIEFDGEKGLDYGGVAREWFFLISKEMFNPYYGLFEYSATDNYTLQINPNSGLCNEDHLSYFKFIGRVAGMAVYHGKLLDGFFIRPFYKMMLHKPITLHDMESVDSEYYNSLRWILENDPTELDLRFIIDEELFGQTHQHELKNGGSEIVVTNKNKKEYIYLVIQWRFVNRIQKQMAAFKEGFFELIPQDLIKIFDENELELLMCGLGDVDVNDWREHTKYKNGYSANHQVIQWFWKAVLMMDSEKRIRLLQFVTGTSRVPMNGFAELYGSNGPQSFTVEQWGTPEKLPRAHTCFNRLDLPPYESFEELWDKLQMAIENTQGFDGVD
Chain of rNedd4-WW2 domain (second WW domain of rat Nedd4, GST tag removed) (rat) (Q62940 whole entry, the tested form may be a part): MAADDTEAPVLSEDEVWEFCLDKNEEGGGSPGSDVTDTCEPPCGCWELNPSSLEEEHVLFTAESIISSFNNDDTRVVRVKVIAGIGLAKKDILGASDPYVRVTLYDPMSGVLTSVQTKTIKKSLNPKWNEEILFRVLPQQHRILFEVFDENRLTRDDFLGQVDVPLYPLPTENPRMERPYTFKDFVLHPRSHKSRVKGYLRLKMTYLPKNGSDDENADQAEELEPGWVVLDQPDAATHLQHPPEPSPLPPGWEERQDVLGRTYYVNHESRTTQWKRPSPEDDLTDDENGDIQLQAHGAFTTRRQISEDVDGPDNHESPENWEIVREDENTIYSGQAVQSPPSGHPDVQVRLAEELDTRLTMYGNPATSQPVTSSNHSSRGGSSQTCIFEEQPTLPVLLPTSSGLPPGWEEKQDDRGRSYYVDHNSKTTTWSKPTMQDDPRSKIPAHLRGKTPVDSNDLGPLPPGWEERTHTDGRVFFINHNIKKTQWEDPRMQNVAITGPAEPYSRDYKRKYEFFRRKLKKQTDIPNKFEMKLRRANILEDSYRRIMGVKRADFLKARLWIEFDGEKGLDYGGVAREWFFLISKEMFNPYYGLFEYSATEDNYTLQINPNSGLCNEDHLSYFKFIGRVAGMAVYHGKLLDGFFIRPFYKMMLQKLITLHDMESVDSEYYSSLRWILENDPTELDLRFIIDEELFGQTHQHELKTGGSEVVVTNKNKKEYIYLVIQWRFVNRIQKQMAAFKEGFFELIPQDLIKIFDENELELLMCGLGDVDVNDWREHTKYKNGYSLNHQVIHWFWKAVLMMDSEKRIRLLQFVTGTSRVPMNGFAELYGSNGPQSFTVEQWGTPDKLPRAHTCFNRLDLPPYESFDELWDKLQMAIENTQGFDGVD
Chain of rNedd4-WW3/4 domain (third WW domain of rat Nedd4, GST tag removed) (rat) (Q62940 452-499): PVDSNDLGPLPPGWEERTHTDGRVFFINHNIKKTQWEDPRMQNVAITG

By Kd is commonly meant a measure of binding affinity in units of concentration. Regarding Nogo-A PY motif peptide, in assay [1], the Kd came to 4 µM and the dH is -13.8 kcal/mol.

As to U24-6A (from UniProt Q69559), in the assay with Fyn SH3 (Homo sapiens), the dissociation constant Kd was 5000 µM.

In the case of “U24-6A peptide (15-mer, N-terminus of U24 from HHV-6A) (from UniProt Q69559 1-15)”, the Kd in assay [2] is 155 µM; in assay [3], 9.7 µM. In addition, the dH in assay [2] was -12.9 kcal/mol; in assay [3] it was -12.7 kcal/mol.

As for “U24-7 peptide (15-mer, N-terminus of U24 from HHV-7)”, the equilibrium dissociation constant (Kd) in assay [4] stood at 21 µM; in assay [2], 87 µM; in assay [3], 1.98 µM. Moreover, the dH in assay [4] is -15.2 kcal/mol; in assay [2], -18.2 kcal/mol; in assay [3], -16.8 kcal/mol.
